Measurements: patent publication US20060183687A1 (WALTER AND ELIZA HALL INSTITUTE OF MEDICAL RESEARCH, published 2006)
Where a chain is given by its changes, count along the chain named. Numbers in names are those of the source.

B1: EE-tagged BimEL (other)
chain: EYMPMEMAKQPSDVSSECDREGGQLQPAERPPQLRPGAPTSLQTEPQGNPDGEGDRCPHGSPQGPLAPPASPGPFATRSPLFIFVRRSSLLSRSSSGYFSFDTDRSPAPMSCDKSTQTPSPPCQAFNHYLSAMASIRQSQEEPEDLRPEIRIAQELRRIGDEFNETYTRRVFANDYREAEDHPQMVILQLLRFIFRLVWRRH
B2: EE-tagged BimL (Glu-Glu epitope-tagged mouse BimL) (other)
chain: EYMPMEMAKQPSDVSSECDREGGQLQPAERPPQLRPGAPTSLQTEPQDRSPAPMSCDKSTQTPSPPCQAFNHYLSAMASIRQSQEEPEDLRPEIRIAQELRRIGDEFNETYTRRVFANDYREAEDHPQMVILQLLRFIFRLVWRRH
notes: N-terminal EE tag from a pEF vector derivative; also called EE-BimL; EE BimL
B3: EE-tagged BimS (other)
chain: EYMPMEMAKQPSDVSSECDREGGQLQPAERPPQLRPGAPTSLQTEPQASIRQSQEEPEDLRPEIRIAQELRRIGDEFNETYTRRVFANDYREAEDHPQMVILQLLRFIFRLVWRRH
B4: murine BimL (wild-type) (other)
chain: MAKQPSDVSSECDREGGQLQPAERPPQLRPGAPTSLQTEPQDRSPAPMSCDKSTQTPSPPCQAFNHYLSAMASIRQSQEEPEDLRPEIRIAQELRRIGDEFNETYTRRVFANDYREAEDHPQMVILQLLRFIFRLVWRRH
notes: also called wild-type BimL; mBIM L
B5: BimL double mutant T54I/N65S (other)
chain: B4 chain with T54I, N65S
notes: also called T541/N65S; double mutant T541/N65S
B6: BimL mutant D51G (other)
chain: B4 chain with D51G
notes: also called D51G mutant
B7: BimL mutant S53P (other)
chain: B4 chain with S53P
B8: BimL mutant T54A (other)
chain: B4 chain with T54A
B9: EE-BimL ΔBH3 mutant (other)
chain: EYMPMEMAKQPSDVSSECDREGGQLQPAERPPQLRPGAPTSLQTEPQDRSPAPMSCDKSTQTPSPPCQAFNHYLSAMASIRQSQEEPEDLRPEIRIAQEALFNETYTRRVFANDYREAEDHPQMVILQLLRFIFRLVWRRH
notes: also called EE-Bim ΔBH3

Assays:
human Bcl-2 [1] = molecular target: T1, human Bcl-2 (human, UniProt P10415 1-239); experiment: immunoprecipitation with anti-human Bcl-2 from FDC-P1 cells, anti-EE immunoblot
T1 construct: also called wt Bcl-2
T1 sequence (P10415 whole entry): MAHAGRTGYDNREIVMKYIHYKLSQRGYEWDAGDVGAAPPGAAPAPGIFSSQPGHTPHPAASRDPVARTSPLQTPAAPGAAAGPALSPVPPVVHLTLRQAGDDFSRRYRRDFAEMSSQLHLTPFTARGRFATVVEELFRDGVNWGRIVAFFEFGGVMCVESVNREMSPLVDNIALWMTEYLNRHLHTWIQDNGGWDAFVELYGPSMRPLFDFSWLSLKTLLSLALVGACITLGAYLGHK

[2] = molecular target: T2, Epstein-Barr virus BHRF-1 protein (Epstein-Barr virus, UniProt P03182 1-191); experiment: immunoprecipitation from co-transfected 293T cells
T2 sequence: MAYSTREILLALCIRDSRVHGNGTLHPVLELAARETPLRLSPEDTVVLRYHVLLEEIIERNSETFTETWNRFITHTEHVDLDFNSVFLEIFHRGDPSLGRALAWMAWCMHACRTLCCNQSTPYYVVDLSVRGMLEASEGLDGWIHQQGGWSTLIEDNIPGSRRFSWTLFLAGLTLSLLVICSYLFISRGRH

human Bcl-2 [3] = molecular target: T1, human Bcl-2; experiment: immunoprecipitation and immunoblot from FDC-P1 cells (FIG. 8B)
human Bcl-2 [4] = molecular target: T1, human Bcl-2; experiment: yeast two-hybrid, beta-galactosidase activity with ONPG
dynein light chain = molecular target: T3, dynein light chain (UniProt P63167 1-89, limits assumed); experiment: yeast two-hybrid, beta-galactosidase activity with ONPG; reference wild-type BimL
T3 construct: also called cytoplasmic dynein light chain
T3 sequence (P63167 whole entry): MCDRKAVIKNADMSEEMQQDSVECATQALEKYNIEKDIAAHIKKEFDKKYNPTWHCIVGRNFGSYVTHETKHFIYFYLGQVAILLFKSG

human Bcl-2 [5] = molecular target: T1, human Bcl-2; experiment: immunoprecipitation and immunoblot from FDC-P1 cells

Binder	binding result (human Bcl-2 [4])	activity compared to wild-type BimL (dynein light chain) [%]	other results
B1	–	–	binding result (human Bcl-2 [1]): binds
B2	–	–	binding result [2]: no binding; binding result (human Bcl-2 [3]): binds
B3	–	–	binding result (human Bcl-2 [1]): binds
B4	binds	–	–
B5	binds	< 0.1	–
B6	binds	–	–
B7	binds	< 0.1	–
B8	binds	< 0.1	–
B9	–	–	binding result (human Bcl-2 [5]): no binding
